Results published in patent US20110166062A1 (INDIANA UNIVERSITY RESEARCH AND TECHNOLOGY, published 2011).
Where no end group is shown, it is not given here. [ ]: non-standard residue; d: D form. The star is where a group is joined. Stearoyl = CCCCCCCCCCCCCCCCCC(=O)*; Palmitoyl = CCCCCCCCCCCCCCCC(=O)*; Myristoyl = CCCCCCCCCCCCCC(=O)*; Aib = CC(C)(N)C(=O)O

T1: GIP receptor (UniProt P48546 22-466)
T1 sequence (looked up): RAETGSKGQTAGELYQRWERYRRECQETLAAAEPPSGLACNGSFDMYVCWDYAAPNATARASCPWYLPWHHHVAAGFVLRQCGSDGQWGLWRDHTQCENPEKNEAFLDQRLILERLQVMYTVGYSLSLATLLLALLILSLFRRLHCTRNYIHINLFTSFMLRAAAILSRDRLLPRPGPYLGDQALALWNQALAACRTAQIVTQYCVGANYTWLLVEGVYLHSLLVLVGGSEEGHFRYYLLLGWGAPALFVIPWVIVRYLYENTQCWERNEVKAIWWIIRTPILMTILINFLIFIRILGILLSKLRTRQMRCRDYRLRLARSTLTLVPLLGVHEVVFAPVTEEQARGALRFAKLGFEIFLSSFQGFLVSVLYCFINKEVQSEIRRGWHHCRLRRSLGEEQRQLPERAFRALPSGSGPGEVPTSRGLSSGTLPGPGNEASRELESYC

B1: mt-283 (peptide)
peptide: Y[Aib]EGTFTSDK(Palmitoyl)SIYLDKQAA[Aib]EFVNWLLAG-NH2
modifications: N-terminus assumed
SMILES: CCCCCCCCCCCCCCCC(=O)NCCCC[C@H](NC(=O)[C@H](CC(=O)O)NC(=O)[C@H](CO)NC(=O)[C@@H](NC(=O)[C@H](Cc1ccccc1)NC(=O)[C@@H](NC(=O)CNC(=O)[C@H](CCC(=O)O)NC(=O)C(C)(C)NC(=O)[C@@H](N)Cc1ccc(O)cc1)[C@@H](C)O)[C@@H](C)O)C(=O)N[C@@H](CO)C(=O)N[C@H](C(=O)N[C@@H](Cc1ccc(O)cc1)C(=O)N[C@@H](CC(C)C)C(=O)N[C@@H](CC(=O)O)C(=O)N[C@@H](CCCCN)C(=O)N[C@@H](CCC(N)=O)C(=O)N[C@@H](C)C(=O)N[C@@H](C)C(=O)NC(C)(C)C(=O)N[C@@H](CCC(=O)O)C(=O)N[C@@H](Cc1ccccc1)C(=O)N[C@H](C(=O)N[C@@H](CC(N)=O)C(=O)N[C@@H](Cc1c[nH]c2ccccc12)C(=O)N[C@@H](CC(C)C)C(=O)N[C@@H](CC(C)C)C(=O)N[C@@H](C)C(=O)NCC(N)=O)C(C)C)[C@@H](C)CC
B2: mt-282 (peptide)
peptide: Y[Aib]EGTFTSDK(Myristoyl)SIYLDKQAA[Aib]EFVNWLLAG-NH2
modifications: N-terminus assumed
SMILES: CCCCCCCCCCCCCC(=O)NCCCC[C@H](NC(=O)[C@H](CC(=O)O)NC(=O)[C@H](CO)NC(=O)[C@@H](NC(=O)[C@H](Cc1ccccc1)NC(=O)[C@@H](NC(=O)CNC(=O)[C@H](CCC(=O)O)NC(=O)C(C)(C)NC(=O)[C@@H](N)Cc1ccc(O)cc1)[C@@H](C)O)[C@@H](C)O)C(=O)N[C@@H](CO)C(=O)N[C@H](C(=O)N[C@@H](Cc1ccc(O)cc1)C(=O)N[C@@H](CC(C)C)C(=O)N[C@@H](CC(=O)O)C(=O)N[C@@H](CCCCN)C(=O)N[C@@H](CCC(N)=O)C(=O)N[C@@H](C)C(=O)N[C@@H](C)C(=O)NC(C)(C)C(=O)N[C@@H](CCC(=O)O)C(=O)N[C@@H](Cc1ccccc1)C(=O)N[C@H](C(=O)N[C@@H](CC(N)=O)C(=O)N[C@@H](Cc1c[nH]c2ccccc12)C(=O)N[C@@H](CC(C)C)C(=O)N[C@@H](CC(C)C)C(=O)N[C@@H](C)C(=O)NCC(N)=O)C(C)C)[C@@H](C)CC
B3: mt-284 (peptide)
peptide: Y[Aib]EGTFTSDK(Stearoyl)SIYLDKQAA[Aib]EFVNWLLAG-NH2
modifications: N-terminus assumed
SMILES: CCCCCCCCCCCCCCCCCC(=O)NCCCC[C@H](NC(=O)[C@H](CC(=O)O)NC(=O)[C@H](CO)NC(=O)[C@@H](NC(=O)[C@H](Cc1ccccc1)NC(=O)[C@@H](NC(=O)CNC(=O)[C@H](CCC(=O)O)NC(=O)C(C)(C)NC(=O)[C@@H](N)Cc1ccc(O)cc1)[C@@H](C)O)[C@@H](C)O)C(=O)N[C@@H](CO)C(=O)N[C@H](C(=O)N[C@@H](Cc1ccc(O)cc1)C(=O)N[C@@H](CC(C)C)C(=O)N[C@@H](CC(=O)O)C(=O)N[C@@H](CCCCN)C(=O)N[C@@H](CCC(N)=O)C(=O)N[C@@H](C)C(=O)N[C@@H](C)C(=O)NC(C)(C)C(=O)N[C@@H](CCC(=O)O)C(=O)N[C@@H](Cc1ccccc1)C(=O)N[C@H](C(=O)N[C@@H](CC(N)=O)C(=O)N[C@@H](Cc1c[nH]c2ccccc12)C(=O)N[C@@H](CC(C)C)C(=O)N[C@@H](CC(C)C)C(=O)N[C@@H](C)C(=O)NCC(N)=O)C(C)C)[C@@H](C)CC

Target: T1, GIP receptor
Assay: cell-based or functional assay

| EC50 [pM] | Binder |
| --- | --- |
| 12.2 | B1 |
| 13.3 | B2 |
| 18.6 | B3 |
